The values below come from PMC4551932, “Different motif requirements for the localization zipcode element of β-actin mRNA binding by HuD and ZBP1”.

The term IC50 denotes the concentration needed to halve the response being measured.

The target of data set [1] is T1, ZBP1 (His-ZBP1) (Rattus norvegicus (rat), UniProt Q8CGX0 1-577). The data set can be described thus: EMSA; apparent Kd; REMSA: 50 mM Tris-HCl pH 7.0, 150 mM NaCl, 5 mM MgCl2, 0.2 mM DTT, 0.25 mg/ml tRNA, 0.25 mg/ml BSA, room temperature 20 min; 20 fmol RNA and 3 pmol protein in 20 ul. Conditions: protein: recombinant, tags: 6xHis (replaces GST in pGEX), label: biotin at both ends. Background: In EMSA bound probe runs differently from free probe, usually more slowly.

In data set [2] the target is T2, HuD (GST-HuD) (Rattus norvegicus (rat), UniProt O09032 1-385). The data set can be described thus: EMSA; REMSA: 50 mM Tris-HCl pH 7.0, 150 mM NaCl, 5 mM MgCl2, 0.2 mM DTT, 0.25 mg/ml tRNA, 0.25 mg/ml BSA, room temperature 20 min; 20 fmol RNA and 3 pmol protein in 20 ul. The note with it: protein: recombinant, tags: GST N-terminal (pGEX-2T), label: biotin at both ends.

Data set [3] addresses T2, HuD (GST-HuD). The data set can be described thus: competition EMSA; HuD displaces ZBP1 (4 pmol) from zipcode RNA; REMSA: 50 mM Tris-HCl pH 7.0, 150 mM NaCl, 5 mM MgCl2, 0.2 mM DTT, 0.25 mg/ml tRNA, 0.25 mg/ml BSA, room temperature 20 min; 20 fmol RNA and 3 pmol protein in 20 ul. The note with it: protein: recombinant; tags: GST N-terminal (pGEX-2T); label: biotin at both ends; stem-loop, 16-nt terminal loop (predicted).

Data set [4] deals with T2, HuD (GST-HuD). The data set can be described thus: EMSA; no difference from wild type; REMSA: 50 mM Tris-HCl pH 7.0, 150 mM NaCl, 5 mM MgCl2, 0.2 mM DTT, 0.25 mg/ml tRNA, 0.25 mg/ml BSA, room temperature 20 min; 20 fmol RNA and 3 pmol protein in 20 ul. Conditions: protein: recombinant; tags: GST N-terminal (pGEX-2T); label: biotin at both ends; disrupted structure (predicted).

Data set [5] addresses T1, ZBP1 (His-ZBP1). The data set can be described thus: EMSA; REMSA: 50 mM Tris-HCl pH 7.0, 150 mM NaCl, 5 mM MgCl2, 0.2 mM DTT, 0.25 mg/ml tRNA, 0.25 mg/ml BSA, room temperature 20 min; 20 fmol RNA and 3 pmol protein in 20 ul. The note with it: protein: recombinant, tags: 6xHis (replaces GST in pGEX), label: biotin at both ends.
Where [6] appears, read: stem-loop, 10-nt terminal loop (predicted).

T1 sequence (Q8CGX0 whole entry): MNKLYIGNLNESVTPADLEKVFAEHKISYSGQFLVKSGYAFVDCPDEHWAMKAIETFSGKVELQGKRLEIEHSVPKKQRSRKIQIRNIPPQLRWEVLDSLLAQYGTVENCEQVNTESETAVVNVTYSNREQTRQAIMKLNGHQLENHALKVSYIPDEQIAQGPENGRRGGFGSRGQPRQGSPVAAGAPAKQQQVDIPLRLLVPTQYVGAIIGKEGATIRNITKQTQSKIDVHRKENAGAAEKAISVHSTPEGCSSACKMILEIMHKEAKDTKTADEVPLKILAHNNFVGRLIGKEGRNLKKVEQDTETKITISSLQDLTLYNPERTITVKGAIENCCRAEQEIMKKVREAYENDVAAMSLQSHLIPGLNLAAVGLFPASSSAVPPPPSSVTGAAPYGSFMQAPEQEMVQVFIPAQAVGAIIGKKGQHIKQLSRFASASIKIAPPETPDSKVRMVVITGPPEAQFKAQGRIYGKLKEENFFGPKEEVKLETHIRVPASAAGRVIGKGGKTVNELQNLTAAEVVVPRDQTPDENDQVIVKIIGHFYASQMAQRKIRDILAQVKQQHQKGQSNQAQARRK
T2 sequence (O09032 whole entry): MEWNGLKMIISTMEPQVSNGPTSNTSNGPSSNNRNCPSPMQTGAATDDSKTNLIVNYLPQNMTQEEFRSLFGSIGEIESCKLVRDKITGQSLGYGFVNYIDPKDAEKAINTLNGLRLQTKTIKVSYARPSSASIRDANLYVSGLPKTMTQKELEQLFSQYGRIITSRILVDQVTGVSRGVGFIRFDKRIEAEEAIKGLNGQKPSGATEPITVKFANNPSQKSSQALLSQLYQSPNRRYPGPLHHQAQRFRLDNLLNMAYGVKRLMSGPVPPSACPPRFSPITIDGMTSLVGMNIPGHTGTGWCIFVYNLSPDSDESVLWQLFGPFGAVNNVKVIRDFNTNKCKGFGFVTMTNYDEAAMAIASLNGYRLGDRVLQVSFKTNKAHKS

B1: chicken zipcode (structured_RNA)
RNA: ACCGGACUGUUACCAACACCCACACCCCUGUGAUGAAACAAAACCCAUAAAUGC
Consider B1, for which the Kd with ZBP1 (His-ZBP1) [1] was determined as 78.8 nM. Besides, in the data set with HuD (GST-HuD) [2], the binding result was “no binding”.

B2: WT zipcode (rat, 54 nt) (structured_RNA)
RNA: CGGACUGUUACUGAGCUGCGUUUUACACCCUUUCUUUGACAAAACCUAACUUGC
Consider B2, for which the IC50 in the data set with HuD (GST-HuD) [3] was 171 nM. For the same molecule, the Kd with ZBP1 (His-ZBP1) [1] (stem-loop, 16-nt terminal loop (predicted)) was 28.1 nM.

B3: AAMTCG zipcode (structure-disrupted mutant) (structured_RNA)
RNA: CGGACUGUUCCUGGGCUGCGUUUUACACCCUUUCUUUGACAAAACCUAACUUGC
modifications: structure disrupted; ACACCC and U-rich motifs intact
Consider B3, for which, in the data set with ZBP1 (His-ZBP1) [1] (disrupted structure (predicted)), the Kd was 315 nM. Besides, the binding result in the data set with HuD (GST-HuD) [4] is listed as “binds”.

On to CGGACUGUUACUGAGCUGCGUUUUUUUCUUUGACAAAACCUAACUUGC (structured_RNA, ACACCC deleted) [delta-ACACCC zipcode], for which the binding result with HuD (GST-HuD) [2] (setting [6]) and with ZBP1 (His-ZBP1) [5] (setting [6]) was “binds” throughout.

In the case of CGGACUGUUACUGAGCUGCGGACAAAACCUAACUUGC (structured_RNA, ACACCC and UUUCUUU deleted) [delta(ACACCC/U-rich) zipcode], the binding result with HuD (GST-HuD) [2] (altered structure (predicted)) and with ZBP1 (His-ZBP1) [5] (altered structure (predicted)) was “no binding” throughout.
